Source: the nanobody polyreactivity screen of Harvey et al. (2022)

Assay: yeast display, Sf9 membrane polyspecificity reagent, FACS + sequencing; frameworks hold sequencing errors
In short: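 Galactose induction of a Saccharomyces cerevisiae BJ5465 synthetic nanobody display library ran 36–48 hours. The cells were then stained for 1 hour at 4 °C with 10% biotinylated, detergent-solubilized Sf9 membrane reagent, pulled down on streptavidin microbeads and FACS-sorted into low and high (top ~1%) gates on expression and reagent-binding fluorescence. Labels for polyreactivity follow the gate of origin.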

Row | Sequence | polyreactivity (PSR sort gate)
1 | QVQLVESGGGLVQAGGSHRLSCAASGRILVRYAMGCYRHAPGKERELVAAISRGGSTTYADSVKGRFTISRDNAKNTVYLQMNSLKPEDTAFYYCAAGRYPYNRDYWGQGTQVTVSS | high polyreactivity
2 | QVQLVESGGGLVQAGGSHRLSCAASGRTFLTNAMGWYRQAPGKERELVAAIRWSGTSTYYADSVKGRFTISRDNAKNTVYLQMNSLKPEDTAVYYCAARKVYGSKYGYWGQGTQVTVSS | high polyreactivity
3 | QVQLVESGGGLVQAGGSHRLSCAASGRTFRQYAMGWYRQAPGKERELVATISSGGSTYYADSVKGRFTISRDNAKNTVYLQMNSLKPEDTAVYYCAAPYWARKYWRKFGPFDYWGQGTQVTVSS | low polyreactivity
4 | QVQLVESGGGLVQAGGSHRLSCAASGRTFWYYTMGWYRQAPGKERELVAAINWRGGTTYYADSVKGRFTISRDNAMNTVYLQMNSLKPEDTAVYYCAATHWAYSRVPYDYWGQGTQVTVSS | high polyreactivity
5 | QVQLVESGGGLVQAGGSHRLSCAASGRTLGGYAMGWSRQAPGKERELVAAISYSGGSTYYADSVKGRFTISRDNAKNTVYLQMNSLKAEFTAVYYCARDYSWYYYGSQLFAHDYWGQGTQVTVSS | low polyreactivity
6 | QVQLVESGGGLVQAGGSHRLSCAASGRTYVYNAMGWYRQAPGKERELDAGITNGGSTNYADSVKGRFTISRDNAKNTVYLQMNSLKPEDTAVYYCAADSRVYPYYFGDFGYWGQGTQVTVSS | low polyreactivity
7 | QVQLVESGGGLVQAGGSHRLSCAASGSIFALYAMGWYREAPGKEREFVAAISWNGGRTYYADSVKGRFTISRDNAKNTVYLQMNSLKPEDTAVYYCAARSWYAYDYWGQGTQVTVSS | high polyreactivity
8 | QVQLVESGGGLVQAGGSHRLSCAASGSILSYYAMGWYRQAPGQEREFVAAIRTRGGSTYYADSVKGRFTISRDNAKNTVYLQMYSLKPEDTAVYYFAARTRPDRVRQGRYYYWGQGTQVTVSS | high polyreactivity
9 | QVQLVESGGGLVQAGGSHRLSCAASGSTFAYYAMGWYRQAPGKERELVATISERGGTTYYADSVKGRFTLSRDNAKNTVYFQMNILKPEVTAVYYCAADHSGYWTYYYDYYYWGQGTQVNVSS | low polyreactivity
10 | QVQLVESGGGLVQAGGSHRLSCAASGSTLTWYAMGWYRQAPWKEWELVDTISSSTGSTRYADSVKGRFTISRDNAKNSVYLRINSLKPDDTAVYYCAKAYALRYARGRARYDYDFWGQGTQVNVSS | low polyreactivity
11 | QVQLVESGGGLVQAGGSHRLSCAASGSTSGINAMGWYRQAPGKERELVAAIRLSGGRTYYADSVKGRFTISRDNAKNTVYLQMNSLKPEDTAVYYCAARYPSRVGYYYLGQGTQVTVSS | high polyreactivity
12 | QVQLVESGGGLVQAGGSHRLSCAASGSTVGRNAMGWYGQAPGKERELVAAITASGGTTYYADSVKGRFTISRDNAKNTVYLQMNSLKPEDTAVYYCARAGHFSFKYDYWGQGTQVTVSS | low polyreactivity
13 | QVQLVESGGGLVQAGGSHRLSCAASGYIFDYNDMGWSRQAPGKERELVAAITYSRGSTYYADSVKGRFTISRDNAKNTVYLQMNSLQPEDTAVYYCAATFRSRGYSARRYYYWGQGTQVTVST | high polyreactivity
14 | QVQLVESGGGLVQAGGSHRLSCAASRSIFPYNAKGWYRQAPGKATELVATISNSGGSTYYADSVKGRFTISRDTAMNTVYLQMNSLKPEDTAVYYCADDRSVYLPAPDPALDYWGQGTQLTVSS | low polyreactivity
15 | QVQLVESGGGLVQAGGSHRLSCAAYGRIFYYYVMGWYRQAPGKERELVAVIDWSGGSTYYADSVKGRFTISRDNAKYTVYVQMNCLKPDDTAVYYCAKVWLNFSLAYEDYDYWGQGTQVNVSS | low polyreactivity
16 | QVQLVESGGGLVQAGGSHRLSCASYGSIFRCYAKGWYRQAPGKERELVAGITRSGGSTYYADSVKGRFTISRDNAKNTVYLQLNRLKPEDTAVYYCNADLYRKRAWVRRDGSWGHGTQVTVSS | low polyreactivity
17 | QVQLVESGGGLVQAGGSHRLSSAASGSIIPSYAMGWYRQAPGKERELVAAITTSGGNTFYADSVKGRFTISRDNAKNTVYLQMNSLKPEDTAVYYCAADYSPYTVEYDYWGQGTQVTVSS | low polyreactivity
18 | QVQLVESGGGLVQAGGSHRLTCAASGITFTVNAMGWYRQAPRKERELVAAISNDGSTYYADSVKGRFTISRDYAKNTVYLQMNSLKPEDTAVYYCAADTWDDFGPYGYDYWGQGTQVTVSS | low polyreactivity
19 | QVQLVESGGGLVQAGGSILLSCAASGFIFLYYAMGWYRQAPGKERELVADISRGADTKYADTVKGRFTISRDNAKNTVYLQMNSLKPEDTAVYYCATVITTFWFPYPGVELGYWGQGTQVNVSS | low polyreactivity
20 | QVQLVESGGGLVQAGGSIRLSCAASGFIFFSNAMGWYRQAPGKERELVAVIDRATSTYYADSVKGRFTISRDNAKNTVYLQMNSLKPEDTAVYYCNADGEEVYDFNYFLSFKGDYWGQGTQVTVSS | low polyreactivity
21 | QVQLVESGGGLVQAGGSIRLSCAASGFTFKGNVMGWYRQAPGKERELVAAISRSGGRTYYADSVKGRFTISRDNAKNTVYLQMNSLKPEDTAVYYCAAVVQSSEPVEYDYWGQGTQVTVSS | high polyreactivity
22 | QVQLVESGGGLVQAGGSIRLSCAASGGTFKTYVMGWNRQAPVKERELVAAINTSGTSTYYADSVKGRFTISRDNAKIKVYLQMNSLKPEDTAVYYCATRYRYTYYWGQGTQVTVSS | high polyreactivity

Row | Sequence | polyreactivity (PSR sort gate)
23 | QVQLVESGGGLVQAGGSIRLSCAASGINFYGNAMGWYRQAPGKETELVAAISWSGSSTYYADSVKGRFTISRDNAKNTVYFQMLSLKPEDTAVYYCKKATSSVRYLIYYYWGQGTQVTVSS | high polyreactivity
24 | QVQLVESGGGLVQAGGSIRLSCAASGLTFRWYAMGWYRQAPGKESELVAAISSGGRTYYADSVKGRFTISRDNAKNTVYLLMNSLKPEDTAVYYSNKRTLDYGFGSYGREYWGQGTQVTVSS | high polyreactivity
25 | QVQLVESGGGLVQAGGSIRLSCAASGNTFRWYAMGWYRQAPGKEREFVAAISSSGGSTYYADSVKGRFTISRDNAKNTVYLQMNSLKPEDTAVYYCTAASVTRHVSFATDYEYWGQGTQVTVSS | high polyreactivity
26 | QVQLVESGGGLVQAGGSIRLSCAASGRIFGRNAMGWYRQAPGKERELVAAISSSGGTYYADSGKGRFTISRDNAKNTVYLQMNSLKPEDTAVYYCNGRVRTQQRWVDYWGQGTQVTVSS | high polyreactivity
27 | QVQLVESGGGLVQAGGSIRLSCAASGRIFNHNSMGWYRQAPGKERELVAAITKSGGSTYYADSVKGRFTISRDNAKNTVYFQINSLITEDTAVYYCATRLWKIPGAMYYWGQGTQVTVSS | high polyreactivity
28 | QVQLVESGGGLVQAGGSIRLSCAASGRIFVRNAMGWYRQAPGKEREMVAAISWSSGGTYYADSVKGRFTISRDNAKNTVYLQMNSLKPEDTAVYYCNADPSRAGDYWGQGTQVTVSS | low polyreactivity
29 | QVQLVESGGGLVQAGGSIRLSCAASGRTFDGNALGWYRKAPGKERELVAAITSGGSTNYAYSVKGRFTISRDNAKNTVYVQRNSLKPEDTAVYYCAAERWYGYSHSDFGYWGQGTQVTVSS | high polyreactivity
30 | QVQLVESGGGLVQAGGSIRLSCAASGRTFGYYAMGWYRQAPGKERELVAAISWSGGRTYYADSVKGRFTISRDNAKNTVYLQMNSLKPEDTAVYYCAAQTAGFWYDYWGQGTQVTVSS | high polyreactivity
31 | QVQLVESGGGLVQAGGSIRLSCAASGRTLPEYVMGWYRQAPGKERELVAAITTAGSTNYADSVKGRFTISRDNAKNTVYLQINCLKPEDTAVYYCAGTTRSRGFRDIDYWGQGTQVTVSS | low polyreactivity
32 | QVQLVESGGGLVQAGGSIRLSCAASGSTISHNAMGWYRQAPGKERELVAAITRGDSTNYADSVKGRFTNTRDNAKNTVYLEMNSLKPEDTAVYYCNANKWYRYDYWGQGTQVTVSS | low polyreactivity
33 | QVQLVESGGGLVQAGGSIRLSCDASGNTFCTYAMGWYRQAPGKERELVATSAKRAGSTYYADSVKGRFTISRDNAKNTVFLQLKCLKPEDTAFYDCARDAYSVYYYVFLHWEYDYWGQVTQVTVSS | high polyreactivity
34 | QVQLVESGGGLVQAGGSIRLSSAASGFTFYPYMGWYRQAPVKERELVATITWIGDDTYYADSVKGRFTISRDNAKNTVYLQMNSLKPEDTAVYYCNTDVDDTLYYSPMDYWGQGTQVTVSS | low polyreactivity
35 | QVQLVESGGGLVQAGGSLCLSCAASGRTFIRNAMGWYRPAPGKERELVAAINSGGITNYADSVKGRFTISRDNAKNTVYLQMNSLKPEDTALYYCNARQVLYGLYLRAYPYEYWGQGTQVTVSS | low polyreactivity
36 | QVQLVESGGGLVQAGGSLGLSCAASGFTVYRYAMGWSRQAPGKERELVARTYYADSVKRRFTISRDNAKNTVYLQMNSLKPEDTAVYYCNIDLELEYRYEYWGQGTQVTVSS | low polyreactivity
37 | QVQLVESGGGLVQAGGSLGLSCAASGRIFGVYAMGWYRQAPGTERELVAAIWSGGSTYYADSVKGRFTISRDNAKNTVYLQMNSLKPEDTAVYYCAADDAYSHRSLYSHNDYWGQGTQVTVSS | low polyreactivity
38 | QVQLVESGGGLVQAGGSLGLSCAASGSIFGYYALGWYRPAPGKERELVAAISWSDGSTYYADSVKGRFTISRDNAKNTVYLQMNSLKPEDTAVYDCAARFTPYITSADGHYDYWGQGTQVTVSS | low polyreactivity
39 | QVQLVESGGGLVQAGGSLGLSCAASGSIFSDYAMGWYRQATGKERELVAAITQSGGSTYADSVKGRFTISRDNAKNTVYLQMISLKPEDTAVYYCAADEVPGFGYPPYPWFDYWGQGTQVTVSS | low polyreactivity
40 | QVQLVESGGGLVQAGGSLGLSCAASGSTFRSYAMGWYRQAPGKERELVAAISSAGTTYYADSVKGRFTISRDNAKNTVYLQMNSLKPEDTAVYYCAAKYSYYTYAGDGGLFSWSYGYWGQGTQVTVSS | low polyreactivity
41 | QVQLVESGGGLVQAGGSLGLSCAAYGSIFVGNAMGWYRQAPGNERELVAAICRSGGITYYADSVKGRFTISRDNAKNTVYLQMNSLKPEDTAVYYCAARHRYYYQYRSDYWGQGTQVTVSS | high polyreactivity
42 | QVQLVESGGGLVQAGGSLGLTCAASGSIFYGYAMAWYRPAPGKERELVAAISSSGGNTYYADSVKGRFTISRDNAKNTVYLQMNSLKPEDTAVYYCNKVYYQVKYDYWGQGTQVSVSS | low polyreactivity
43 | QVQLVESGGGLVQAGGSLHLSCAASGFTFDGYTMGWYRQAPGKERELVATITTGGSTYYADSVKGRFTISRDNAKNTVYLQMNSLKPEDTAVYYCAADYRGVPYIKWPKDFEYWGQGTQVTVSS | low polyreactivity
